{
  "source": "paper PMC8719770",
  "about": "(PLoS ONE, 2021)",
  "key": {"[1]": {"molecular_target": "T1, human PD-1 (recombinant; construct not stated for this experiment) (Homo sapiens, UniProt Q15116)", "T1 construct": "human PD-1; the ELISA and the SPR may have used different ones; SPR methods may stand in S1 File", "assay": "SPR; format not told in the text shown (S1 Fig b, c)", "settings": "both partners purified"}, "[2]": {"molecular_target": "T2, human PD-1 expressed on PD-1 transfected CHO-S cells (human, UniProt Q15116)", "T2 construct": "human PD-1 on the surface of transfected CHO-S cells; also called cell-surface expressed PD-1; membrane PD-1; source: CHO-S, transfected, on cells", "assay": "flow cytometry on cells; competition: PD-1-transfected CHO-S cells with serial diluted antibody and 5 μg/mL biotin-labeled PD-L1, 4°C, 30 minutes; streptavidin-PE", "settings": "one partner purified"}, "[3]": {"molecular_target": "T2, human PD-1 expressed on PD-1 …", "assay": "flow cytometry on cells; competition: PD-1-transfected CHO-S cells with serial diluted antibody and 0.5 μg/mL biotin-labeled PD-L2, 4°C, 30 minutes; streptavidin-PE", "settings": "one partner purified"}, "mouse PD-1-ECD-Fc": {"molecular_target": "T3, mouse PD-1-ECD-Fc (Mus musculus, UniProt Q02242)", "T3 construct": "mouse PD-1 extracellular domain; also called murine PD-1; source: bought: Sino Biological Inc", "assay": "ELISA; PD-1-Fc proteins (9 ng per well) immobilized on 96-well plate overnight at 4°C; serial diluted HLX10, one hour at room temperature; detected with peroxidase-labeled goat anti-human IgG F(ab)'2", "settings": "both partners purified"}, "rat PD-1 ECD-Fc": {"molecular_target": "T4, rat PD-1 ECD-Fc (Rattus norvegicus, UniProt D3ZIN8)", "T4 construct": "rat PD-1 extracellular domain; also called murine PD-1; source: bought: Sino Biological Inc", "assay": "ELISA; PD-1-Fc proteins (9 ng per well) immobilized on 96-well plate overnight at 4°C; serial diluted HLX10, one hour at room temperature; detected with peroxidase-labeled goat anti-human IgG F(ab)'2", "settings": "both partners purified"}, "[4]": {"molecular_target": "T5, recombinant cynomolgus monkey PD-1 His tag (Macaca fascicularis (cynomolgus monkey), UniProt B0LAJ3)", "T5 construct": "cynomolgus monkey PD-1 extracellular domain; also called cynomolgus PD-1; source: bought: R&D Systems", "assay": "BLI; Octet Red96; antibodies (5 μg/ml) captured on protein A biosensor tips; serial dilution of PD-1 as analyte, 120 sec association, 300 sec dissociation; HBS-EP+ pH 7.4, 25°C, 1000 rpm; global 1:1 fit; apparent constants", "settings": "both partners purified"}},
  "data": [
    {"binder": "HLX10, fully humanized IgG4 monoclonal antibody against PD-1 receptor (antibody, V domains shown, humanized VH (CDRs of chimeric c1G4 grafted on human germline IGHV3-11*04) on a human IgG4 constant region; humanized VL (CDRs of chimeric c1G4 grafted on human germline IGKV1-39*01); IgG4, hinge-stabilized; the PDB entry holds the Fab only; also called h1G4; hIG4) VH: QVQLVESGGGLVKPGGSLRLSCAASGFTFSNYGMSWIRQAPGKGLEWVSTISGGGSNIYYADSVKGRFTISRDNAKNSLYLQMNSLRAEDTAVYYCVSYYYGIDFWGQGTSVTVSS VL: DIQMTQSPSSLSASVGDRVTITCKASQDVTTAVAWYQQKPGKAPKLLIYWASTRHTGVPSRFSGSGSGTDFTLTISSLQPEDFATYYCQQHYTIPWTFGGGTKLEIK", "values": [
      {"measurement": "Kd", "setting": "[1]", "result": 0.32, "unit": "nM"},
      {"measurement": "IC50", "setting": "[2]", "result": 4.36, "unit": "nM"},
      {"measurement": "IC50", "setting": "[3]", "result": 6.46, "unit": "nM"},
      {"measurement": "binding result", "setting": "mouse PD-1-ECD-Fc", "result": "no binding"},
      {"measurement": "binding result", "setting": "rat PD-1 ECD-Fc", "result": "no binding"},
      {"measurement": "Kd", "setting": "[4]", "result": "4.78 ± 0.16", "unit": "nM"},
      {"measurement": "koff", "setting": "[4]", "result": 0.000745, "unit": "s⁻¹"},
      {"measurement": "kon", "setting": "[4]", "result": 153000, "unit": "M⁻¹ s⁻¹"}
    ]}
  ]
}
